Results published in patent publication US20030144208A1 (ZymoGenetics, published 2003).

Molecular target: T1, BSA V (Sigma Co.) (bovine, UniProt P02769 25-607)
T1 construct: Negative control of the ELISA; also called BSA control; bovine serum albumin
Assay: ELISA on plated matrix protein, anti-FITC/biotin, streptavidin/HRP, chemiluminescence on film
Procedure: An ELISA (Enzyme-linked Immunosorbant Assay) was used to measure binding of zsig37 to various matrix proteins and complement C1q. The matrix proteins used were Bovine Collagen Type I (Becton Dickinson, Lincoln Park, N.J.) laminin, vitronectin, fibronectin, human collagen Types II, III, IV, V, VI (Chemicon International, Temecula, Calif.). BSA V (Sigma Co.) was used as a negative control. Just prior to use, the proteins were diluted in 2×PBS (Phosphate Buffered Saline, Sigma Co.) to 100 μg/ml and adjusted to pH 7.2 with 0.1 N NaOH. Each protein sample was quadruplicate plated (100 μl/well) into a 96 well plate. The plate was allowed to dry overnight in a laminar flow hood and washed 3 times with 400 μl of 5 mg/ml BSA in 1×PBS and blotted dry. Zsig37 was FITC labeled according to manufacturer's instruction (Pierce, Rockford, Ill.). Into each well was added 100 μl of 1.8 μg/ml zsig37-FITC in 5% BSA, PBS. The plates were incubated for 1.5 hours at room temperature then washed 3 time with 5% BSA, PBS. To each well was then added 100 μl of 1:400 mouse anti-FITC/Biotin (Sigma Co.). The plate was incubated 1.5 hours at room temperature and washed 3 times with 5% BSA, PBS. The plate was then incubated with 100 μl of 1:1000 streptavidin/HRP (Amersham, Piscataway, N.J.) for 1 hour and washed 3 times with 5% BSA, PBS. […]

T1 sequence (P02769 25-607 limits assumed): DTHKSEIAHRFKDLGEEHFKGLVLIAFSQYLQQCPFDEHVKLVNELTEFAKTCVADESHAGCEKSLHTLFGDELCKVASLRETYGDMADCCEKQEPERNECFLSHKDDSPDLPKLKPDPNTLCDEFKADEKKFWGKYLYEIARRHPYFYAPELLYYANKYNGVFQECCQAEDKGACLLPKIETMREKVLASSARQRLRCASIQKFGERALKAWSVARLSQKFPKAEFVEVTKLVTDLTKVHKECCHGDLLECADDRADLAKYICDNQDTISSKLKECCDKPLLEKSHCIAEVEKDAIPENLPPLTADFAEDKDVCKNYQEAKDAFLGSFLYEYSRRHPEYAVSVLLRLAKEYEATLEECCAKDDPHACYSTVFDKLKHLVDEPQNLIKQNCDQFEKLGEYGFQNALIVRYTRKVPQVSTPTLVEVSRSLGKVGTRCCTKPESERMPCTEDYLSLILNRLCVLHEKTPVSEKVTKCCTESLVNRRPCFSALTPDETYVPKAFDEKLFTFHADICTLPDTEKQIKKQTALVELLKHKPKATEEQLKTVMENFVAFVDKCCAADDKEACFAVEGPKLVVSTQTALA

B1: zsig37-FITC (ligand)
chain: LVLSRVPHVQGEQQEWEGTEELPSPPDHAERAEEQHEKYRPSQDQGLPASRCLRCCDPGTSMYPATAVPQINITILKGEKGDRGDRGLQGKYGKTGSAGARGHTGPKGQKGSMGAPGERCKSHYAAFSVGRKKPMHSNHYYQTVIFDTEFVNLYDHFNMFTGKFYCYVPGLYFFSLNVHTWNQKETYLHIMKNEEEVVILFAQVGDRSIMQSQSLMLELREQDQVWVRLYKGERENAIFSEELDTYITFSGYLVKHATEP
modifications: FITC label (sites not given)
notes: 22-281 is used here; also called FITC labeled zsig37; FITC tagged Zsig37 protein
- binding result: no binding (tested: 1.8 µg/ml zsig37-FITC)
